15 molecules from patent US20250042994A1 (HAINAN SIMCERE ZAIMING PHARMACEUTICAL, published 2025) can be followed below.

Assay [1] has as its target T1, human CD19 exon1-3-His tag protein (human, UniProt P15391 20-186, limits assumed).
T1 construct: membrane-distal part of the extracellular region, made in HEK293E cells; not shown: His tag
T1 sequence (looked up): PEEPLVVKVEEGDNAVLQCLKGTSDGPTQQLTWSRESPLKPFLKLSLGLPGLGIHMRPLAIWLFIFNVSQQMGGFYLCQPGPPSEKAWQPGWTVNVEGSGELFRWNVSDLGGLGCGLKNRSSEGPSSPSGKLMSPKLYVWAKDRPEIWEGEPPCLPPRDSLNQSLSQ
Nature of the assay: ELISA on coated human CD19 exon 1-3-His. (In an ELISA, binding on a coated surface is turned into a signal by an enzyme label.)

A further assay addresses T2, Human CD19-his protein (human, UniProt P15391 20-291).
T2 construct: bought protein; also called recombinant human CD19-His; CD19 full-length protein; not shown: His tag
T2 sequence (looked up): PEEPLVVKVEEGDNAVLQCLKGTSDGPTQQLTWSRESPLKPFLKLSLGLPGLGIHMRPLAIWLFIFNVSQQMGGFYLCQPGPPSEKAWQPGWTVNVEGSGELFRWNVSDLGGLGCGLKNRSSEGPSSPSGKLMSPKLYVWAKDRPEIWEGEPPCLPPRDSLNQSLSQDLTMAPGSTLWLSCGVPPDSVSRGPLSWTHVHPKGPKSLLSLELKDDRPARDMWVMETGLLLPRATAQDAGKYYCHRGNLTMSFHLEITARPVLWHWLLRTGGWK
The experiment in a line: SPR Biacore, Ab captured on Protein A, CD19-His analyte. In outline: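 Apparent KD came from a Langmuir 1:1 fit of double-referenced sensorgrams. Recombinant human CD19-His analyte (top 200 nM, 1:1 serial dilution, 5 concentrations) flowed over Protein A-captured antibody for 240 s at 30 μl/min, then buffer for up to 600 s. Running buffer HBS-EP+ at 25 °C; regeneration with 10 mM glycine pH 1.5.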
(In general: Surface plasmon resonance follows binding to a sensor surface in real time, without labels.)

One may read the Kd as the constant that tells how readily two partners part at equilibrium. Lower therefore signals higher affinity. As usually defined, the koff is a measure of how fast the partners let go of each other. Lower therefore signals slow dissociation. Broadly, the kon is the rate constant with which the complex forms. Lower therefore signals slower complex formation.

B1: F4.37.6 (antibody, human IgG1, V domains shown)
VH: QVQLQQSGAELARPGASVKLSCKASGYTFTSFWMQWLKQRPGQGLEWIGTIYPGDGDTRYTQKFKGKATLTADKSSNTAYMQLSSLASEDSAVYYCARGALSNYGGFAYWGQGTLVTVSA
VL: NIVLTQSPASLAVSLGQRATISCRASESVDSYGHSFMHWYQQKPGQPPKLLIYLASNLESGVPARFSGSGSRTDFTLTIDPVEADDAATYYCQQNNEDPWTFGGGTKLEIK
notes: human-murine chimeric antibody, human IgG1 constant
Regarding B1, in assay [1], the binding result is “no binding (tested: 100 nM)”. In the assay with Human CD19-his protein, this molecule yielded a Kd of 9.11 nM, an off-rate (koff) of 0.00327 s⁻¹ and an on-rate constant (kon) of 359000 M⁻¹ s⁻¹.

B2: F4.191.1 (antibody, human IgG1, V domains shown)
VH: QVQLQQPGAELVRPGASVKLSCKASGYTFTSYWINWVKQRPGQGLEWIGNIHPSDSYTNYNQKFKDKATLTVDKSSSTAYMQFSSPTSEDSAVYYCTREDYYYGSNYDAMDYWGQGTSVTVSS
VL: DIVMTQSHKFMSTSVGDRVNITCKASQDVGSSVAWYQQKPGQSPKLLIYWASTRHAGVPDRFTGSGSGADFTLTISNVQSEDLADYFCQQYSTYPLTFGAGTKLELK
notes: as for B1
Take B2: the binding result in assay [1] is “no binding (tested: 100 nM)”. In the assay with Human CD19-his protein, this molecule returned a Kd of 1.9 nM, an off-rate constant (koff) of 0.000388 s⁻¹ and a kon of 205000 M⁻¹ s⁻¹.

B3: F4.33.12 (antibody, human IgG1, V domains shown)
VH: QVQLQQSGAELVRPGSSVKISCKGSGYAFSSYWMNWVKQRPGQGLEWIGQIYPGDGDTNYNGKFKGKATLTADKSSSTAYMQLSSLTSEDSAVYFCARAGFYYGSDSSMDYWGQGTSVTVSS
VL: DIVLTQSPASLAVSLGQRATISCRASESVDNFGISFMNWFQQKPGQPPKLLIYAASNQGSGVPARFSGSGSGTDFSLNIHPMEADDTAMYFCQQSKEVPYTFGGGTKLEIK
notes: as for B1
Regarding B3, the binding result in assay [1] is given as “no binding (tested: 100 nM)”. Further, in the assay with Human CD19-his protein, the affinity, expressed as Kd, was 3.45 nM; the off-rate constant (koff) was 0.000452 s⁻¹; the on-rate (kon) came to 131000 M⁻¹ s⁻¹.

B4: F4.18.13 (antibody, human IgG1, V domains shown)
VH: QVQLQQSGPELVKPGASVKISCKASGYAFSSFWMNWVKQRPGEGLEWIGRIYPGDGDTNYNGKFKGKATLTADDSSSTAYMQLSSLTSVDSAVYFCAREVIAAVVTTDFDYWGQGTTLTVSS
VL: DIQMTQTTSSLSASLGDRVTISCRTSQDISNYLNWYLQKPDGTVKLLIYYTSGLHSGVPSRFSGSGSGTDYSLTISNLEPEDIATYFCQQGKTLPYTFGGGTKLEIK
notes: as for B1
As to B4, in assay [1], the binding result was “no binding (tested: 100 nM)”. In the assay with Human CD19-his protein, the Kd came out at 0.362 nM, the off-rate (koff) stood at 0.000171 s⁻¹ and the kon turned out to be 472000 M⁻¹ s⁻¹.

B5: F4.41.1 (antibody, human IgG1, V domains shown)
VH: QVQLQQSGAELVRPGTSVKVSCKASGYAFTNYLIEWVKQRPGQGLEWIGVINPGSGDTLYNEKFKGKATLTADKSSTTAYMQLSGLTSDVSAIYFCARSPPITTIVADYFDYWGQGTTLTVSS
VL: DIQMTQTTSSLSASLGDRVTISCRASQDISNYLNWYQQKPDGTVKLLIYYTSRLHSGVPSRFSGSGSGADYSLTISNLEQEDIATYFCQQGKTLPYTFGGGTKLEIK
notes: as for B1
Turning to B5, in assay [1], the binding result was “no binding (tested: 100 nM)”. Moreover, in the assay with Human CD19-his protein, the dissociation constant Kd was 13.4 nM, the koff turned out to be 0.00239 s⁻¹ and the kon was 179000 M⁻¹ s⁻¹.

B6: F4.35.5 (antibody, human IgG1, V domains shown)
VH: EIQLQQSGPELVKPGASVKVSCKASGYAFTSYNMYWVKQSHGKSLEWIGYIDPYNGDTRYNQKFKGKATLTVDKSSSTAYMHLNSLTSEDSAVYYCTRSGTGRDYWGQGTTLTVSS
VL: QIVLTQSPAIMSASPGEKVTMTCSASSSISYMFWFQQKPGSSPRLLIYDTSSLASGVPVRFSGSGSGTSYTLTISRMEAEDAATYYCQQWSNYPYTFGGGTKLEMK
notes: as for B1
Take B6: in assay [1], the binding result is on record as “no binding (tested: 100 nM)”. In addition, in the assay with Human CD19-his protein, the Kd worked out at 15.3 nM, the off-rate constant (koff) is 0.00351 s⁻¹ and the on-rate constant (kon) came to 229000 M⁻¹ s⁻¹.

B7: F4.15.9 (antibody, human IgG1, V domains shown)
VH: QVQLQQSGPELVKPGASVKISCKASGYAFSSSWMNWLKQRPGQGLEWIGRIYPGDGDTNYNGKFKGKATLTADESSSTAYMQLSSLTSVDSAVYFCARGITTIITIAWFASWGQGTLVTVSA
VL: QIVLSQSPTILSASPGEKVTMTCRASSSVSYMHWYQQKPGSSPKPWIYATSNLASGVPPRFSGSGSGTSYSLTISRVGAEDAATYYCQQWSSDPWTFGGGTKLEIK
notes: as for B1
As to B7, the binding result in assay [1] is “no binding (tested: 100 nM)”. Moreover, in the assay with Human CD19-his protein, the Kd was found to be 2.72 nM, the off-rate constant (koff) worked out at 0.000949 s⁻¹ and the on-rate constant (kon) is 348000 M⁻¹ s⁻¹.

B8: F4.49.11 (antibody, human IgG1, V domains shown)
VH: DVQLRASGPGLVKPSQSLSLTCSVTGYSITSGYYWNWIRQFPGNKLEWMGCISYDGTNNYNPSLKNRISFTRDTSKNQFFLNLNSVTTEDSATYYCARRVYYRYDGVVDYWGQGTSVTVSS
VL: ENVLTQSPAIMSASPGEKVTMTCSASSSVSYIHWYQQKSSTAPKLWIYDTSKLASGVPGRFSGSRSRNSYSLTISSMEAEDVATYYCFQGSGYPLTFGSGTKLEIK
notes: as for B1
Turning to B8, in assay [1], the binding result is given as “no binding (tested: 100 nM)”. In the assay with Human CD19-his protein, this molecule showed a Kd of 17.6 nM, an off-rate constant (koff) of 0.00128 s⁻¹ and a kon of 73000 M⁻¹ s⁻¹.

B9: F4.78.1 (antibody, human IgG1, V domains shown)
VH: QVQIQQSGAELARPGASVKLSCKASGYTFTNYWMQWIKQRPGQGLEWIGAIYPGDGDTRYTQKFKGKATLTADKSSSTAYMQLSSLASEDSAVYYCAREEVWSPYGMDYWGQGTSVTVSS
VL: QIVLTQSPAIMSASPGEKVTITCSASSSVSYMGWFQQKPGTSPKLWIYSTSNLASGVPARFSGSGSGTSYSLTISRMEAEDAATYYCQQRSIYPLTFGAGTKLELK
notes: as for B1
Take B9: the binding result in assay [1] is “no binding (tested: 100 nM)”. For the same molecule, in the assay with Human CD19-his protein, the Kd was 0.926 nM, the koff was determined as 0.00017 s⁻¹ and the on-rate constant (kon) turned out to be 184000 M⁻¹ s⁻¹.

B10: F4.58.6 (antibody, human IgG1, V domains shown)
VH: QVQLQQPGAELVKPGASVKLSCKASGYTFTSYWMHWVKQRPGQGLEWIGEIDPSDSYSNYNQKFKGKATLTVDKSSSTAYMQLSSLTSEDSAVYYCARSNYGSSYGYFDVWGAGTTVTVSS
VL: QIVLTQSPAIMSASPGEKVTMTCSVSSSLSYMHWYQQKPGTSPKRWIYDTSKLASGVPARFSGSGSGTSYSLTISSMEAEDAATYYCHQRSSYPTFGGGTKLEIK
notes: as for B1
For the molecule B10, the binding result in assay [1] is “no binding (tested: 100 nM)”. In the assay with Human CD19-his protein, this molecule came in with a dissociation constant Kd of 13.9 nM, a dissociation rate constant (koff) of 0.002 s⁻¹ and an association rate constant (kon) of 143000 M⁻¹ s⁻¹.

B11: F3.133.14 (antibody, human IgG1, V domains shown)
VH: QVQLQQPGAELVMPGASVKLSCKASGYTFTNYWMHWVKQRPGQGLEWIGEIDPSDYYANYNQKFKGKATLTVDKSSSTAYMQLSSLTSEDSAVYYCARSHYYANSYNYWGQGTTLTVSS
VL: EIELTQSPTTMAASPGEKITITCSASSSISSDYLHWYQQKPGFSPKLLIYRTSNLASGLPARFSGSGSGTSYSLTIGTMEAEDVATYYCQQGSSVPRMLTFGAGTKLELK
notes: as for B1
With B11, the binding result in assay [1] is “no binding (tested: 100 nM)”. Besides, in the assay with Human CD19-his protein, the dissociation constant Kd is 0.974 nM, the koff was 8.84e-05 s⁻¹ and the kon is 90800 M⁻¹ s⁻¹.

B12: F4.21.2 (antibody, human IgG1, V domains shown)
VH: QVQLKQSGPGLVQPSQSLSITCTVSGFSLSTYGVHWVRQSPGRGLEWLGVIWIGGTTDYNAAFISRLTISKDNSRGQVFFKMDSLQANDTAIYYCARKGYYKYDGGYYYAMDYWGQGTSVTVSS
VL: DIQMTQSSSYLSVSLGGRVTITCKASDHINNWLAWYQQKPGNAPWLLISGATSLETGVPSRFSGSGSGKDYTLSISSLQTEDVATYYCQQYWSTPLTFGAGTKLELK
notes: as for B1
On to B12, for which, in assay [1], the binding result is listed as “no binding (tested: 100 nM)”. In the assay with Human CD19-his protein, this molecule came in with a Kd of 0.904 nM, an off-rate (koff) of 0.000167 s⁻¹ and a kon of 185000 M⁻¹ s⁻¹.

B13: F4.22.6 (antibody, human IgG1, V domains shown)
VH: QVQLQQSGPELVKPGASVKISCKASGYAFSSFWMNWVKQRPGQGLEWIGRIYPGDGDTNYNGKFKGKATLTADKSSTTAYMHLSSLTSVDSAVYFCTRSVITAVVDWYFDVWGAGTTVTVSS
VL: QIVLSQSPAILSASPGEKVTLTCRASSSVNFMHWYQQKPGSSPKPWIYATSNLASGAPARFSGSGSGTSYSLTISRVEAEDAAAYYCQQWSSYPIFTFGSGTKLEIK
notes: as for B1
As for B13, the binding result in assay [1] is listed as “no binding (tested: 100 nM)”. Also, in the assay with Human CD19-his protein, the equilibrium dissociation constant (Kd) was 5.94 nM, the off-rate constant (koff) was 0.00147 s⁻¹ and the on-rate (kon) was 248000 M⁻¹ s⁻¹.

B14: F4.48.12 (antibody, human IgG1, V domains shown)
VH: QMQLKESGPGLVAPSQSLSITCTVSGFSLTDYGVSWIRQPPGKGLEWLGVIWGSGSTFYNSALTSRLSISKDNSKSQVFLKMNSLQTADTAMYFCAKHHYYGGSFAMDYWGQGTSVTVSS
VL: DIQMTQASSSLSASLGDRVTISCKTSQDISNYLNWYQQKPDGTFKLLIHYTSRLHSGVPSRFSGSGSGSDYSLTISNLEREDIATYFCQQGNSLPYTFGGGTKLEMK
notes: as for B1
Take B14: the binding result in assay [1] is on record as “no binding (tested: 100 nM)”. In the assay with Human CD19-his protein, this molecule registered a Kd of 0.487 nM, a koff of 0.000129 s⁻¹ and a kon of 264000 M⁻¹ s⁻¹.

B15: F4.4.6 (antibody, human IgG1, V domains shown)
VH: QVQLQQSGAELARPGASVKLSCKASGYTFTSYWMQWVKQRPGQGLEWIGAIYPGDGDSRYTQKFKGKATLTADKSSSTAYMQLSSLASEDSAVYYCARSTTTVLGNNFEYWGQGTTLTVSS
VL: QIVLTQSPAIMSALPGEKVTMTCSASSSVSSMHWYQQKSGTSPKRWIYDTSKLASGVPARFSGSGSGTSYSLTISSMEAEDAATYYCQQWSSNPWTFGGGTKLEIK
notes: as for B1
As for B15, in assay [1], the binding result is “no binding (tested: 100 nM)”. In addition, in the assay with Human CD19-his protein, binding was put at a Kd of 9.47 nM, the koff turned out to be 0.0019 s⁻¹ and the kon is 201000 M⁻¹ s⁻¹.
